{"source": "patent US20240034813A1", "about": "(Janssen / Centocor, published 2024)", "binders": {"B1": {"name": "amivantamab (bispecific antibody, human IgG1, kappa)", "heavy 1": "not shown", "light 1": "not shown", "heavy 2": "not shown", "light 2": "DIQMTQSPSSVSASVGDRVTITCRASQGISNWLAWFQHKPGKAPKLLIYAASSLLSGVPSRFSGSGSGTDFTLTISSLQPEDFATYYCQQANSFPITFGQGTRLEIKRTVAAPSVFIFPPSDEQLKSGTASVVCLLNNFYPREAKVQWKVDNALQSGNSQESVTEQDSKDSTYSLSSTLTLSKADYEKHKVYACEVTHQGLSSPVTKSFNRGEC", "notes": "The samples tested were high concentration (160 mg/mL) formulations, fresh or stored or stressed; also called JNJ-61186372; bispecific EGFR-cMet antibody"}}, "key": {"[1]": {"target": "T1, recombinant cMet/HGFR with c-terminal His-tag, Cy5-labeled (UniProt P08581 25-932, limits assumed, Cy5 label (reacted with Cy5 Mono NHS Ester; sites not stated))", "T1 construct": "Commercial protein; also called Cy5-c-MET; Cy5-labeled c-MET antigen; not shown: C-terminal His-tag", "experiment": "competitive TR-FRET (Eu-amivantamab/Cy5-c-MET), EC50 ratio vs Reference Material; Ex. 12 drug product with rHuPH20, 5 months at 5 C", "source_text": "(§1) In this procedure, varying concentrations of unlabeled bispecific EGFR-cMet antibody sample compete with donor fluorophore (Europium (Eu) chelate) labeled bispecific EGFR-cMet antibody for binding to an acceptor fluorophore (Cy5)-labeled c-MET antigen. Excitation of the donor fluorophore results in a transfer of energy to the bound acceptor fluorophore (FRET process). The resultant FRET is detected by emission of light at 665 nm using a microplate reader capable of measuring time-resolved fluorescence. Sample dose response curves are compared to the Reference Material (RM).\n(§2) c-MET Binding Materials and Methods. Certified commercial cMet, a recombinant cMet/HGFR with c-terminal His-tag is reacted with certified commercial Cy5 Mono NHS Ester to produce Cy5-labeled c-MET. Validated bispecific EGFR-cMet antibody is reacted with certified commercial Europium (Eu) chelate to produce Eu labeled bispecific EGFR-cMet antibody. […] Fluorescence is then measured by spectrophotometry at 665 nm, plotted against antibody concentration and analyzed by a four-parameter logistic model. The antibody concentration required to obtain half of the maximum fluorescence response (EC50) is determined for RM, assay control and samples. The potencies of assay control and samples are calculated based on the ratio of the sample (or control) and RM EC50 values and reported as a percentage activity relative to the RM."}, "[2]": {"target": "T2, recombinant human EGFR/ErbB1/HER1 with C-terminal His tag, Cy5-labeled (human, UniProt P00533 25-645, Cy5 label (reacted with Cy5 Mono NHS Ester; sites not stated))", "T2 construct": "Commercial protein; also called Cy5-EGFR; Cy5-labeled EGFR antigen; not shown: C-terminal His tag", "experiment": "competitive TR-FRET (Eu-amivantamab/Cy5-EGFR), EC50 ratio vs Reference Material; Ex. 12 drug product with rHuPH20, 6 months at 5 C", "source_text": "as §1, with “EGFR” for “c-MET”, “RM.” for “Reference Material (RM).”\nas §2, with “EGFR” for “c-MET”, “EGFR,” for “cMet,”, “human EGFR/ErbB1/HER1” for “cMet/HGFR”, “C-terminal His tag” for “c-terminal His-tag”, “EGFR.” for “c-MET.”, “Eu-labeled” for “Eu labeled”"}, "[3]": {"target": "T2, recombinant human EGFR/ErbB1/HER1 with …", "experiment": "competitive TR-FRET (Eu-amivantamab/Cy5-EGFR), EC50 ratio vs Reference Material; Ex. 2 Formulation 3 (acetate), 3 months at 25 C", "source_text": "as §1, with “EGFR” for “c-MET”, “RM.” for “Reference Material (RM).”\nas §2, with “EGFR” for “c-MET”, “EGFR,” for “cMet,”, “human EGFR/ErbB1/HER1” for “cMet/HGFR”, “C-terminal His tag” for “c-terminal His-tag”, “EGFR.” for “c-MET.”, “Eu-labeled” for “Eu labeled”"}, "[4]": {"target": "T2, recombinant human EGFR/ErbB1/HER1 with …", "experiment": "competitive TR-FRET (Eu-amivantamab/Cy5-EGFR), EC50 ratio vs Reference Material; Ex. 2 Formulation 1 (10 mM histidine), T0, 5 C table", "source_text": "as §1, with “EGFR” for “c-MET”, “RM.” for “Reference Material (RM).”\nas §2, with “EGFR” for “c-MET”, “EGFR,” for “cMet,”, “human EGFR/ErbB1/HER1” for “cMet/HGFR”, “C-terminal His tag” for “c-terminal His-tag”, “EGFR.” for “c-MET.”, “Eu-labeled” for “Eu labeled”"}, "[5]": {"target": "T2, recombinant human EGFR/ErbB1/HER1 with …", "experiment": "competitive TR-FRET (Eu-amivantamab/Cy5-EGFR), EC50 ratio vs Reference Material; Ex. 2 Formulation 2 (50 mM histidine), T0, 40 C table", "source_text": "as §1, with “EGFR” for “c-MET”, “RM.” for “Reference Material (RM).”\nas §2, with “EGFR” for “c-MET”, “EGFR,” for “cMet,”, “human EGFR/ErbB1/HER1” for “cMet/HGFR”, “C-terminal His tag” for “c-terminal His-tag”, “EGFR.” for “c-MET.”, “Eu-labeled” for “Eu labeled”"}, "[6]": {"target": "T1, recombinant cMet/HGFR with c-terminal …", "experiment": "competitive TR-FRET (Eu-amivantamab/Cy5-c-MET), EC50 ratio vs Reference Material; Ex. 2 Formulation 1 (10 mM histidine), 3 months at 25 C", "source_text": "as §1, §2"}, "[7]": {"target": "T1, recombinant cMet/HGFR with c-terminal …", "experiment": "competitive TR-FRET (Eu-amivantamab/Cy5-c-MET), EC50 ratio vs Reference Material; Ex. 3 acetate formulation with PS80, T0", "source_text": "as §1, §2"}, "[8]": {"target": "T1, recombinant cMet/HGFR with c-terminal …", "experiment": "competitive TR-FRET (Eu-amivantamab/Cy5-c-MET), EC50 ratio vs Reference Material; Ex. 12 drug product with rHuPH20, 12 months at 5 C", "source_text": "as §1, §2"}}, "data": [{"binder": "B1", "values": [{"measurement": "cMET Binding activity relative to Reference Material (%)", "setting": "[1]", "result": 100, "unit": "%"}, {"measurement": "EGFR Binding activity relative to Reference Material (%)", "setting": "[2]", "result": 89, "unit": "%"}, {"measurement": "EGFR Binding % activity relative to RM", "setting": "[3]", "result": 92, "unit": "%"}, {"measurement": "EGFR Binding % activity relative to RM", "setting": "[4]", "result": 103, "unit": "%"}, {"measurement": "EGFR Binding % activity relative to RM", "setting": "[5]", "result": 103, "unit": "%"}, {"measurement": "cMET Binding % activity relative to RM", "setting": "[6]", "result": 94, "unit": "%"}, {"measurement": "cMET Binding % activity relative to RM", "setting": "[7]", "result": 94, "unit": "%"}, {"measurement": "cMET Binding activity relative to Reference Material (%)", "setting": "[8]", "result": 97, "unit": "%"}]}]}
